How the values were obtained:
[1] = target: T1, human DR4 (Death Receptor 4), cell surface expressed on human tumor cell lines (human, UniProt O00220 24-468); assay: flow cytometry, HCT-15 cells, n = 1
T1 construct: also called TNFRSF10A; TRAIL-R1
T1 sequence: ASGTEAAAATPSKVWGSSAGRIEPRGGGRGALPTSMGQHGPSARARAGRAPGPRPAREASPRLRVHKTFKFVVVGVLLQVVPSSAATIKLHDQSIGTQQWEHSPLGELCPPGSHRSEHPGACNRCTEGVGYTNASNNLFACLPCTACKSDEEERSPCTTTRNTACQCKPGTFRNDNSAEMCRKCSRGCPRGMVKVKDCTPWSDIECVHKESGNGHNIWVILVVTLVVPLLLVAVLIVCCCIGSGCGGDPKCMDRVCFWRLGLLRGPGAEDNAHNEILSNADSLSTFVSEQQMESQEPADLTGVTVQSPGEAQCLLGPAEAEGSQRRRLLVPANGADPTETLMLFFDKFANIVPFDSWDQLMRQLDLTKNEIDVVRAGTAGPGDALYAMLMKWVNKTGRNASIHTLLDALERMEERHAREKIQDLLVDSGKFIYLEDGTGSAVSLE

[2] = target: T1, human DR4 (Death Receptor 4), cell …; assay: flow cytometry, HCT-15 cells, n = 2

B1: BisG1-b12-FERL/DR4-FERR (bispecific antibody, human IgG1, kappa, lambda)
heavy 1: QVQLVQSGAEVKKPGASVKVSCQASGYRFSNFVIHWVRQAPGQRFEWMGWINPYNGNKEFSAKFQDRVTFTADTSANTAYMELRSLRSADTAVYYCARVGPYSWDDSPQDNYYMDVWGKGTTVIVSSASTKGPSVFPLAPSSKSTSGGTAALGCLVKDYFPEPVTVSWNSGALTSGVHTFPAVLQSSGLYSLSSVVTVPSSSLGTQTYICNVNHKPSNTKVDKRVEPKSCDKTHTCPPCPAPEFERGPSVFLFPPKPKDTLMISRTPEVTCVVVDVSHEDPEVKFNWYVDGVEVHNAKTKPREEQYNSTYRVVSVLTVLHQDWLNGKEYKCKVSNKALPAPIEKTISKAKGQPREPQVYTLPPSREEMTKNQVSLTCLVKGFYPSDIAVEWESNGQPENNYKTTPPVLDSDGSFLLYSKLTVDKSRWQQGNVFSCSVMHEALHNHYTQKSLSLSPG
light 1: EIVLTQSPGTLSLSPGERATFSCRSSHSIRSRRVAWYQHKPGQAPRLVIHGVSNRASGISDRFSGSGSGTDFTLTITRVEPEDFALYYCQVYGASSYTFGQGTKLERKRTVAAPSVFIFPPSDEQLKSGTASVVCLLNNFYPREAKVQWKVDNALQSGNSQESVTEQDSKDSTYSLSSTLTLSKADYEKHKVYACEVTHQGLSSPVTKSFNRGEC
heavy 2: QVQLQESGPGLVKPSGTLSLTCAVSGGSISSYSWWSWIRQPPGKGLEWIGELYHSGSTNYNPSLKSRVTISVDKSKNQFSLKLRSVTAADTAVYYCVRGVATIDYWGQGTLVTVSSASTKGPSVFPLAPSSKSTSGGTAALGCLVKDYFPEPVTVSWNSGALTSGVHTFPAVLQSSGLYSLSSVVTVPSSSLGTQTYICNVNHKPSNTKVDKRVEPKSCDKTHTCPPCPAPEFERGPSVFLFPPKPKDTLMISRTPEVTCVVVDVSHEDPEVKFNWYVDGVEVHNAKTKPREEQYNSTYRVVSVLTVLHQDWLNGKEYKCKVSNKALPAPIEKTISKAKGQPREPQVYTLPPSREEMTKNQVSLTCLVKGFYPSDIAVEWESNGQPENNYKTTPPVLDSDGSFFLYSRLTVDKSRWQQGNVFSCSVMHEALHNHYTQKSLSLSPG
light 2: QSALTQPPSASGSPGQSVTISCTGTSSDVGGYNFVSWYQQDPGKAPKLLIYEVTKRPSGVPDRFSGSKSGNTASLTVSGLQAEDEADYYCSSYAGSNNVMFGGGTKLTVLGQPKAAPSVTLFPPSSEELQANKATLVCLISDFYPGAVTVAWKADSSPVKAGVETTTPSKQSNNKYAASSYLSLTPEQWKSHRSYSCQVTHEGSTVEKTVAPTECS
notes: Fab-arm exchange of IgG1-b12-FERL and IgG1-DR4-FERR; also called bsIgG1-ctrl-FERLxDR4-FERR
B1 showed an EC50 [1] of 0.59 µg/mL and an EC50 [2] of 0.57 µg/mL.

Source: patent US20250002610A1 (Genmab, published 2025)
